This is an account of results in PMC9203054, “Dynamics of allosteric regulation of the phospholipase C-γ isozymes upon recruitment to membranes” (eLife, 2022).

Experiment [1] has as its target PLC-γ1 pTyr783 peptide peptide encompassing pTyr783 (Homo sapiens) (UniProt P19174). The settings on record: cited from earlier work.
In experiment [2] the target is T1, wild-type PLC-γ1, rat phospholipase C-γ1 residues 21–1215 (rat, UniProt P10686 21-1215).
T1 sequence (looked up): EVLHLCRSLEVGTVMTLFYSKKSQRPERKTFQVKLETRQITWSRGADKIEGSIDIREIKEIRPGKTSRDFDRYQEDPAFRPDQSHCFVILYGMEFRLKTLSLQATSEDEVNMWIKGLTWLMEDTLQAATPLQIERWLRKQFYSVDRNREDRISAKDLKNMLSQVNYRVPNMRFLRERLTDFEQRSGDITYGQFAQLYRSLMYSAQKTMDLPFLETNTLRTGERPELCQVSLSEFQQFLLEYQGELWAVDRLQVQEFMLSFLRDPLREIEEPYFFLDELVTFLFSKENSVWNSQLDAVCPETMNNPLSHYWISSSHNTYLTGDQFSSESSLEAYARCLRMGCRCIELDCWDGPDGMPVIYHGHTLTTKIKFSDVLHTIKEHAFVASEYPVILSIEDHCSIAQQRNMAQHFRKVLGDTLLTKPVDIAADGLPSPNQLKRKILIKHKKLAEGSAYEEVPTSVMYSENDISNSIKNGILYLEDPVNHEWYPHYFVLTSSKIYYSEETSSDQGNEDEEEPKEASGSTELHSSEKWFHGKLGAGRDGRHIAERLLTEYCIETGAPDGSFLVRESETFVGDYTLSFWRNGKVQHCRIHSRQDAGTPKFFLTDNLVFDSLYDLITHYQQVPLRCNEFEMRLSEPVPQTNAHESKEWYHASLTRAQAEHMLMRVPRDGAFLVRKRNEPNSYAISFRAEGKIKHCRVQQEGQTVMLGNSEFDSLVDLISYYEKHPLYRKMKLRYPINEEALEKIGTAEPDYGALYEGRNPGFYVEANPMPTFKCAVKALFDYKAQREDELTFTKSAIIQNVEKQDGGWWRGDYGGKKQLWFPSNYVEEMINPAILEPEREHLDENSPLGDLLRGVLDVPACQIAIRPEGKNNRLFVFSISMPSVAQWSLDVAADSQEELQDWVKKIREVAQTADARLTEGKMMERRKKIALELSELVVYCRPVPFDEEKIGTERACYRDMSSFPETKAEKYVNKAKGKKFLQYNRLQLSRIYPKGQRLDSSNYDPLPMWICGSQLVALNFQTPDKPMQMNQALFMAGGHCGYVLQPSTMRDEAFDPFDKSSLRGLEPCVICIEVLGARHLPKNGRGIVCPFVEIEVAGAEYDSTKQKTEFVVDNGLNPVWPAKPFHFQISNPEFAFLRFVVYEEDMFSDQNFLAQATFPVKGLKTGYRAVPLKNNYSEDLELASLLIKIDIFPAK
Description: cell-based or functional assay.

Experiment [3] concerns the target T2, PLC-γ1 (D1165H), rat phospholipase C-γ1 residues 21–1215 (rat, UniProt P10686 21-1215, D1165H).
T2 sequence (looked up): T1 sequence (looked up) with D1145H
Description: cell-based or functional assay.

Experiment [4] has as its target T3, PLC-γ1 (H335A), rat phospholipase C-γ1 residues 21–1215 (rat, UniProt P10686 21-1215, H335A).
T3 construct: phospholipase C-γ1, rat, residues 21–1215, with H335A; source: High Five (Trichoplusia ni) cells, baculovirus, purified (HisTrap IMAC, TEV cleavage, SourceQ, Superdex 200); not shown: His6, N-terminal, cleaved
T3 sequence (looked up): T1 sequence (looked up) with H315A
Put plainly: SEC; PLC-γ1 variant mixed with phosphorylated kinase-inactive FGFR1K (two-fold molar excess of one partner), Superdex 200 GL 10 mm x 300 mm, 20 mM HEPES pH 7.5, 100 mM NaCl, 10 mM MgCl2, 2 mM DTT; fractions by SDS-PAGE and Coomassie; complex of PLC-γ1 (H335A) run again after 8 hr on ice. The settings on record: both partners purified. In general terms: Size exclusion chromatography separates by hydrodynamic size, large species first.

Experiment [5] deals with T4, PLC-γ1 (H335A+D1165H), rat phospholipase C-γ1 residues 21–1215 (rat, UniProt P10686 21-1215, H335A | D1165H).
T4 construct: phospholipase C-γ1, rat, residues 21–1215, with H335A and D1165H; PDB 6PBC is the cited structure of the parent; also called oncogenic mutant of PLC-γ1; source: High Five (Trichoplusia ni) cells, baculovirus, purified (HisTrap IMAC, TEV cleavage, SourceQ, Superdex 200); not shown: His6, N-terminal, cleaved
T4 sequence (looked up): T1 sequence (looked up) with H315A, D1145H
The description is as above. The settings on record: both partners purified.

Changes are numbered by the printed parent chain. Numbers in names are those of the source.

For the molecule “PLC-γ1 cSH2 domain cSH2 (from UniProt P19174)”, the Kd (as a rule, a measure of binding affinity in units of concentration) in experiment [1] was 360 nM.

B1: kinase-inactive kinase domain of human FGFR1 (residues 458–774) phosphorylated at Tyr766 (domain or fragment, UniProt P11362 458-774, looked up)
chain: AGVSEFELPEDPRWELPRDRLVLGKPLGEGCFGQVVLAEAIGLDKDKPNRVTKVAVKMLKSDATEKDLSDLISEMEMMKMIGKHKNIINLLGACTQDGPLYVIVEYASKGNLREYLQARRPPGLEFCFNPSHNPEEQLSSKDLVSCAYQVARGMEYLASKKCIHRDLAARNVLVTEDNVMKIADFGLARDIHHIDFFKKTTNGRLPVKWMAPEALFDRIYTHQSDVWSFGVLLWEIFTLGGSPYPGVPVEELFKLLKEGHRMDKPSNCTNELFMMMRDCWHAVPSQRPTFKQLVEDLDRIVALTSNQEYLDLSMPLD
modifications: phosphotyrosine at 766
notes: fibroblast growth factor receptor 1, human, kinase domain residues 458–774, six tyrosines changed to phenylalanine; Phosphorylation specifically at Tyr766 confirmed by LC-MS/MS; also called pFGFR1K; phosphorylated FGFR1K; source: High Five cells, baculovirus, purified (HisTrap IMAC, TEV cleavage, Superdex 200); phosphorylated in vitro with His6-tagged kinase-active FGFR1K (Y766F), separated by …
As to B1, the “specific lipase activity of PLC-γ1 (10 nM) on XY-69 in PE:PIP2 (80:20) liposomes, pre-incubated with a two-fold molar excess of pFGFR1K, against PLC-γ1 alone” value in experiment [2] was approximately 3 fold. The “basal lipase activity of PLC-γ1 (D1165H) (0.3 nM) on XY-69 in PE:PIP2 (80:20) liposomes with a two-fold molar excess of pFGFR1K, against PLC-γ1 (D1165H) alone” value in experiment [3] is approximately 2 fold. Moreover, the binding result in experiment [4] and in experiment [5] was “binds” each time.
